From PMC7386315

Key:
[1] = test system: MoCdc5-DBD (Magnaporthe oryzae P131); assay: BLI
[2] = test system: AtCdc5-DBD (Arabidopsis thaliana); assay: BLI

Substance | Kd [1] | Kd [2]
MIR167a | 5.17 10^-8 M | 8.98 10^-8 M
U6 RNA | 1.38 10^-8 M | –
